Reference: the DeepSol protein solubility set

experiment: soluble on expression in E. coli; label from the status in PepcDB or PDB records

| Sequence | soluble on expression in E. coli |
| --- | --- |
| MGSDKIHHHHHHMLKRILVIIGLAVLATACSNAPRTVSHQVISENDDIQLTGLINNLEKDNRTGIFHKVRTNRSSALMGDKALASVYNEWVGTRYRMGGTTKRGIDCSAFMQTTFSEVFGIELPRSTAEQRHLGRKINKSELKKGDLVFFRKNNHVGVYIGNNQFMHASTGQGVTISSLDEKYWARTYTQSRRIM | not soluble |
| LIELIQYTPTTDTVRPEPILIVPAWIMKYYILDLSPENSMVKFLVDQGYTVFMISWRNPSAEDRDLGLDDYRKMGVVDAIGAVQGIVPDQKIHGVGYCLGGTLLSISAATMGRDGGDPFASLSYLASQIDFTEPGELQLFINESQLTFLEDMMWDHGYLDTTQMSGAFQMIGSADLVWSRSLHSYLMGDEPAMFDLLAWNADGTRMPYRMHSEYLRSLYLNNELTEGAFVVEGRPISVTDIRVPVFSVGTVKDHVAPWPSVYKMHLYLDTDLTFVLTSGGHN | not soluble |
| MGSDKIHHHHHHMALVKCQSLNEIPMTATNHMDTSVQHVDIAIVGGAMAGATLALALARLSLSAARPLSIALIEAHLPDKQHPGFDARSIAIAHGSIFELSRLGLWPKLAHLGTAIENIHVSDRGHFGMTELNAAQFHLDALGQVVELERVGQVLFNELNKSEVKLYCPAKLAQVEPAVEGHTLVLDTGKRLKAKLVVAADGLQSKVRSSFDLPVTQVAFEQTAIIANIQTDKPHQHLAYERFTQTGPLALLPMADSQGKPRLSLVWALDDARAKQMQTAPKAEFLAALQQAFGYRAGTFIDVSARHAYPLNLSYMPRPIHHRCVFIGNAAQTLHPIAGQGFNLGLRDVVSLLEVLKTALDQGDDIGSAAVTHAYLNAREHDRNSTIRNIEFLVRGFSNQYWPMALGRNLGLRLLSWFPPLKTPVAQKAMGWK | not soluble |
| MMKPIIREAKPQDKPFIEEIAHLTWDGEDYLARVFDEWIKDGNFYVLELNGKVIGTVKLTLLPNRVSWMEGLRVHPNYHGRGFGKMLHNFIVEKGRMMASEGIIDALEFSPYFLNKKIIAMAEKNGFWVKARFFVASVRVGDFKPEEPIRIEPKLEDLTLGIIPVGWRFIKRSEEALEWIRKNAEVYEYNGLKFIGPKKETIFTPLEPGPAVLKALLPAMAWVAREKDKEEFNLMLSSSIKPVLSVFRRIGVYIWDDAKEPNVLVFRKKLKDKKGLIPFVNKWNYNKEY | not soluble |
| MAHHHHHHPPKRAALIQNLRDSYTETSSFAVIEEWAAGTLQEIEGIAKAAVEAHATIRNSTYGRAQAEKSPEQLLGVLQRYQDLCHNVYCQAETIRTVIAIRIPEHKEADNLGVAVQHAVLKVIDELEIKTLGSGEKSGSGGAPTPIGMYALREYLSARSTVEDKLLGSVDAESGKTKGGSQSPSLLLELRQIDADFMLKVELATTHLSTMVRAVINAYLLNWKKLIQPRGGHLDVLYR | soluble |
| MSLTEIRLVDVTMRDGNQSLWGATGLNTAHMLQAAALTEACGFRAIDFTSSSHMAVAVRYFQNNPWERLRRMAAAMPTTPLQFITTGLRFIAWQQADPEFMRLVYRALQANGVGRFVLLDPMHEVPAVIEAAKLVKEEGNAEVMAALTFTLSEIHTDQFYADFARAVGQSPNIDLFYIKDPAGLLSVDRARTLVPAVKAVIGNRPLEIHAHTTVGQGMMASLEAAKLGISAIHVGVGPGGDGSSLPEANRMVANLEEAGFSVGVDKAALKRLTTYWERVALAEGLPPGTPQNFDASFLRHQIAGGVMTTIARQLDELGLSDRMGAVIEETGQVRADLGFPIMVTPFPQMVMTQALFNVIGERRYAQVSDQVIRYCMGKFGKPTSPVDREVLATIMDRPRSRELEDEPMFPALGDLRRQFGSHLPDEEFLLRAVMPGEQVDAMLAAGPSRATYSPQAAPILSLLRQLAARPDARDIVIEREGFRLALHAGASLEGHHHHHH | not soluble |
| MDSDLYDEFGNYIGPELDSDDDAGDIDDNGDDEDRSDVDEDDEPDRMEEDDAEEIPQNQVVLHEDKKYYATALEVYGEGVETLVQEEDAQPLTEPIVKPVSKKKFQAAERFLPETVYKKEYLADLMDCPHIMRNVAIAGHLHHGKTTFLDCLMEQTHPEFYRAEDADARFTDILFIEKQRGCSIKSQPVSIVAQDSRSKSYLLNIIDTPGHVNFSDEMTASYRLADGVVVMVDAHEGVMMNTERAIRHAIQERLAVTLCISKIDRLLLELKLPPADAYFKLRLIIDQVNNILSTFAEEDVPVLSPLNGNVIFSSGRYNVCFSLLSFSNIYAKQHGDSFNSKEFARRLWGDIYFEKKTRKFVKKSPSHDAPRTFVQFILEPMYKIFSQVVGDVDTCLPDVMAELGIRLSKEEQKMNVRPLIALICKRFFGDFSAFVDLVVQNIKSPLENAKTKIEQTYLGPADSQLAQEMQKCNAEGPLMVHTTKNYPVDDATQFHVFGRVMSGTLEANTDVRVLGENYSIQDEEDCRRMTVGRLFVRVASYQIEVSRVPAGCWVLIEGIDQPIVKTATIAELGYEEDVYIFRPLKFNTRSCVKLAVEPINPSELPKMLDGLRKVNKSYPLLTTRVEESGEHVLLGTGEFYMDCVMHDMRKVFSEIDIKVADPVVTFNETVIETSTLKCFAETPNKKNKITMMAEPLEKQLDEDIENEVVQIGWNRRRLGEFFQTKYNWDLLAARSIWAFGPDTTGPNILLDDTLPSEVDKHLLSTVRESLVQGFQWATREGPLCEEPIRQVKFKLLDAAIATEPLYRGGGQMIPTARRCAYSAFLMATPRLMEPYYTVEVVAPADCVAAVYTVLAKRRGHVTTDAPMPGSPMYTISAYIPVMDSFGFETDLRIHTQGQAFCMSAFHHWQLVPGDPLDKSIVIKTLDVQPTPHLAREFMIKTRRRKGLSEDVSVNKFFDDPMLLELAKQQDYTGF | soluble |
| MLKLASSLRTGLISRSIRTLAPTVNPAEQQQVQAVLPDKLYSSVEIEYRGHDKAVLKSYTSFLQQVCQHLEIPQGRLEVLPYIRWVQPALRSKFVHKKYKLHYETRTHISKLEILNVTGSTASTFLEYIQRNIPEGVGMRVGFTELQPLPLTIQKN | not soluble |
| MSLSITSDLIATANSGIWTDSEMLECCAVVPEAPDTVTISFVSPSGNLFKYEPGQFLTLELPVPGGPLYRTYTISSSPSRPLSLSITVKAQPGSIGTRWMLEKLMPGMRVKAIGPAGQFTLDTTARKKKYLFISAGSGVTPTLAMTTYLYDRGTDIDVSIINCARRPGEIIGRRSLAAMASRVPSIKLTFIVEEDDPFQVWTGLRGRLNQIMIGIVAGDYLERDIYCCGPEPFMDAVREMLIGLGYDMSRYSQESFSAPAETAEDVPDLDDVTPDESVAAQITFVSSKVTAGCTETDTVLAVARGAGLNIPSGCTFGVCGTCKIRKTKGEVHMVHNGGISEDDIADGYILACCSKPVGQVEVDIEGHHHHHH | soluble |
| MSSNCTSTTAVAVAPLSASKTKTKKKHFVCQKVKLFRASEPILSVLMWGVNHTINELSNVPVPVMLMPDDFKAYSKIKVDNHLFNKENLPSRFKFKEYCPMVFRNLRERFGIDDQDYQNSVTRSAPINSDSQGRCGTRFLTTYDRRFVIKTVSSEDVAEMHNILKKYHQFIVECHGNTLLPQFLGMYRLTVDGVETYMVVTRNVFSHRLTVHRKYDLKGSTVAREASDKEKAKDLPTFKDNDFLNEGQKLHVGEESKKNFLEKLKRDVEFLAQLKIMDYSLLVGIHDVDRAEQEEMEVEERAEDEECENDGVGGNLLCSYGTPPDSPGNLLSFPRFFGPGEFDPSVDVYAMKSHESSPKKEVYFMAIIDILTPYDTKKKAAHAAKTVKHGAGAEISTVNPEQYSKRFNEFMSNILT | soluble |
| MDREALLERLKEPFDLLVLGGGATGAGVLWEATLRGLKAALVEAGDFASGTSSRSTKLLHGGVRYLELAFKRLDRRQLKLVVDALHERKVVMDLAPHLAKPLTLVTPLFRPLEIPYYTLGLKLYDLLAGKRRLAPSRYLPPEEVARLFPDLPKTLGGVAYQDGQFADFRLNLALVLSALERGAVALNHAEATALLLEGGRVRGAVVRDGLSGKEVEVRAKAVVNATGSLADRVRRLLDPHLPPLLTASSGVHLVLDYPLEAGLLVPKTRDGRVLFLLPYRGMALLGTTDLPAEPASCPLPREEEVAYLLEEIRPYLGDVSGRVRAVWSGLRPLVGKGETKLLVRDHYIEERRGLYTLVGGKWTTFRLMALDLVERLAKDLGLALPPSKSHATPLLGAGPRPPLPLPEEAARRLWETYGTLAPEVLALGDRPLLPGLPYLEGEVVWAVRRELARKPLDVLARRMGLAFLDQEKTREALPKVVELMAGLLGWDERERALRLKEAEEGLPGLC | soluble |
| MPEFIIVEGNNDLGEFFQIDGELFSDNELLENLKKWREWEVPVIIDDWCNRILNEDETEILYFPTHEDKMNYIRVEKDLEPLYHTSNKIYATISKSEWLELLN | not soluble |
| MGHHHHHHSHMAQKPGTMAQMRNGTSGGDKRQYETEVIILNQCRKLNGQIFIQRDYSKGLDVQFEAEYPARLTEKVPRDVWENTIVRINRIFADAEAITPQTIFETVLGCFTCYASYAITKSTYRRKLDELQEFLNRENREIYHHVGFHIRNPMERGLRVLEISLLSRQGETPRDDVDSPGGAIRTI | not soluble |
| MRVVYTSPRIENLQFLKSEFSNYSVIVLEEPKNDLFHDVLEGKITVDLYVRKISTQFPLYTRKLIEMLKELKSREIMQVEPYLEEVERLKNFSEGDERVREMEKRVNALYIDYTESFLKSDFDEIVEKVLRFSEAEAERIMLRDEMRAKALDDLDEAVIEAGMNHIKLAEILDAESVRIPEIIAERLGTRYLENPGEKLLKAFIFEEDDDLRLLAARNLIFTSLLEKREMEPDFDGDYPHFTHEQKLVRFVDKLDYEKCRKLFYRFWSPR | not soluble |
| MEIIKISPRGYCYGVIDAMVIAKNASLDPNLPRPIHILGMIVHNKHVTDAFESIGIYTVDGANREEILDKITTGTVIFTAHGVSPSVKAKAVAKGLTTIDATCPDVLHTYNLILEKQAAGYEIIYIGKKGHPEPEGAYGTAPDVVHLVETKADIDALSLLSDKIFVTNQTTMSKWDVADLMHYIKGKFPKAIQHQEICMATQVRQEAVALQAKDADLTIVVGDPRSNNTARLAQVSIEKAGTKAYRIADITELDIEWIKDAKKVAVTAGASTPTQLVREVLLFLEQFDAADKTTWKREHNQDFERILPKTKNKYMAEKRSQRLAHLKNGGSLEHHHHHH | not soluble |
| MGSDKIHHHHHHMELASSYDKHDIRYLSASEMAELRVTNVAANQSPADTSQVSTRPDPAPVPVPAPDARQQVESAAVAFVKDLIEHHGDNDDFALAQVQASYARTVDYYGKLTNLSSIIQDKRNYYRRWPERIYNVRNDSIVVTCANDRCMVSGIYDWVVRSPSIHKQDKGASNFSYTISTGPYPKIIAETSKVRS | not soluble |
| QEGYPFPSFHLRGTHPYRSILVSANTEALSPLLASAMDLARIFGSEVYVLFVSRVEAFMPPEEKELLENLKVLVERARKTSGLEVHLIRKEGNPVRETLRLLKGKFNLLALGYTPGRRTAFFRPYVPQLLAQASPVSTLLVPEVNLER | not soluble |
| MGSDKIHHHHHHMVNNQLELEVKSFLEGQSDFANLPSSEITRLSQVIRKKKIRQGQWIFDQEDEFEYVFLMKEGHVKLFSMNLEGDMTSVSYIVPQMVFPLRGILQGRKYCYNAVAMCTSEVYILPIKEMRKIIVHHYAFTMAFMRRMEHRLHRSEKLLEKTTCSSAAQRVRQVLDYLNEDYAQTHGTVKKVPFKIFLKDLAVLSATTSETAGSVIKAMKEEKKVLYNNKIISFI | not soluble |
| MFRVLHLADLHLGYRPDLPAPVREEVYRARNRVLQAAVDLALDPRQGISLVLIAGDLFDNHRPEASLVEETIRQLTRLEAAGIQVITVPGNHDEITYNDAVYRREAGRWPGLLVTDPMPAKVATLKVKGDTCHLMAMAYTGGVTRVDGPLKAFPPAEGEGVNLAVFHGSLDWDGGERSLPLDGEALAAAGYDYIALGHIHRGGQRRLGRGLAVYAGMVAGKGFADPGTGSWTIVTLGDGPARVEQVPARVTPWRLVDLDVTAFQEPEELETAVRDALDPLEHHHHHH | not soluble |
| AAPTATVTPSSGLSDGTVVKVAGAGLQAGTAYWVAQSAWVDTGVYASNPADISSVTADANGSASTSLTVRRSFEGFLWDGTRWGTVDCTTAACHVTLRDALSNGPEGVAISF | soluble |
